Source: patent US20220064248A1, “PHARMACEUTICAL COMPOSITION INCLUDING INSULIN AND GLUCAGON” (HANMl PHARM. CO., LTD, priority 2018, published 2022)
Bridges are numbered along the chain shown (N, C = ends). Where no end group is shown, it is not given here. [ ]: non-standard residue; d: D form. Aib = CC(C)(N)C(=O)O

Biological target: glucagon receptors (Homo sapiens, UniProt P47871)
Experiment: In vitro activity of glucagon analogs relative to native glucagon
Assay type: cell-based
Conditions: relative to native glucagon (SEQ ID NO: 1)
Method: The glucagon analogs were synthesized with reference to Korean Patent Publication Nos. 10-2016-0082482, 10-2017-003466, and 10-2018-0002544, and pl and in vitro activity thereof were measured.

Chain of glucagon receptors (P47871 26-477): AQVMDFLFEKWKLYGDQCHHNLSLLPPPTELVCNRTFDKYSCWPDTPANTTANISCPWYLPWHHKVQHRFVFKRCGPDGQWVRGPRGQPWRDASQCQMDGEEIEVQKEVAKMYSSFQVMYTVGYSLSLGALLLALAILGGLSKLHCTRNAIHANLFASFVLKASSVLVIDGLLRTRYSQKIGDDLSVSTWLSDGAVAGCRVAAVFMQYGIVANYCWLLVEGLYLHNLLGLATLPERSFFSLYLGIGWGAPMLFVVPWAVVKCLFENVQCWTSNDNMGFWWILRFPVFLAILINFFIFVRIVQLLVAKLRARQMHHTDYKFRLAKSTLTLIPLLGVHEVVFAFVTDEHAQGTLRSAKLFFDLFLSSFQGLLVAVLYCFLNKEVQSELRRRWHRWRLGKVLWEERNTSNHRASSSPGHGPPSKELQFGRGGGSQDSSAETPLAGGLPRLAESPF

Row | In vitro activity (relative activity to SEQ ID NO: 1, %) | Substance
1 | 0.7% | -SQGTFTSDYSKYLDECRAKEFVQWLMNT (lactam 15-19; also: name begins with '-' (N-terminal residue not shown)) [SEQ ID NO: 32]
2 | 0.6% | HSQGTFTSDYSKYLDCDRAQDFVQWLMNT (glucagon derivative) [SEQ ID NO: 2]
3 | 6.1% | HSQGTFTSDYSKYLDCERAQDFVQWLMNT (glucagon derivative) [SEQ ID NO: 3]
4 | <0.1% | HSQGTFTSDYSKYLDSCDAQDFVQWLMNT (glucagon derivative) [SEQ ID NO: 4]
5 | <0.1% | HSQGTFTSDYSKYLDSCEADDFVQWLMNT (glucagon derivative) [SEQ ID NO: 6]
6 | 0.3% | HSQGTFTSDYSKYLDSCEAQDFVQWLMNT (glucagon derivative) [SEQ ID NO: 5]
7 | <0.1% | WXQGTFVSDYSKYLDECRAKDFVQWLMNT (W[Aib]QGTFVSDYSKYLDECRAKDFVQWLMNT; lactam 16-20) [SEQ ID NO: 28]
8 | <0.1% | YSQGTFTSDYSKYLDSCEADDFVQWLMNT (glucagon derivative) [SEQ ID NO: 7]
9 | 18.1% | YXQGTFTSDYSKYLDCKRAKEFVQWLMNT [SEQ ID NO: 14] (Y[Aib]QGTFTSDYSKYLDCKRAKEFVQWLMNT; not fully specified (bridges); also: lactam ring between underlined residues, places not shown)
10 | 4.6% | YXQGTFTSDYSKYLDEKCAKEFVQWLMNT [SEQ ID NO: 11] (Y[Aib]QGTFTSDYSKYLDEKCAKEFVQWLMNT; not fully specified (bridges); also: lactam ring between underlined residues, places not shown)
11 | 57.8% | YXQGTFTSDYSKYLDEKCAKEFVQWLMNT [SEQ ID NO: 21] (Y[Aib]QGTFTSDYSKYLDEKCAKEFVQWLMNT; lactam 16-20)
12 | 56.3% | YXQGTFTSDYSKYLDEKRAKEFVQWLMNTC (Y[Aib]QGTFTSDYSKYLDEKRAKEFVQWLMNTC; lactam 16-20) [SEQ ID NO: 12]
13 | 147.8% | YXQGTFTSDYSKYLDEKRCKEFVQWLMNT (Y[Aib]QGTFTSDYSKYLDEKRCKEFVQWLMNT; lactam 16-20) [SEQ ID NO: 22]
14 | 225.5% | YXQGTFTSDYSKYLDERRAKEFVQWLMNTC (Y[Aib]QGTFTSDYSKYLDERRAKEFVQWLMNTC; lactam 16-20) [SEQ ID NO: 37]
15 | <0.1% | YXQGTFTSDYSKYLDSCDADDFVVWLINT (Y[Aib]QGTFTSDYSKYLDSCDADDFVVWLINT) [SEQ ID NO: 10]
16 | <0.1% | YXQGTFTSDYSKYLDSCDAQDFVQWLINT (Y[Aib]QGTFTSDYSKYLDSCDAQDFVQWLINT) [SEQ ID NO: 8]
17 | <0.1% | YXQGTFTSDYSKYLDSCDAQDFVVWLINT (Y[Aib]QGTFTSDYSKYLDSCDAQDFVVWLINT) [SEQ ID NO: 9]
18 | <0.1% | YXQGTFTSDYSKYLDSRRACDFRLWLMNT (Y[Aib]QGTFTSDYSKYLDSRRACDFRLWLMNT) [SEQ ID NO: 18]
19 | 108.2% | YXQGTFTSDYSKYLDSRRAQDFVQWLMNT (X non-natural residue; glucagon derivative; (2) Xaa is aminoisobutyric acid (Aib)) [SEQ ID NO: 33]
20 | 75.4% | YXQGTFTSDYSKYLDSRRAQDFVQWLMNTC (glucagon derivative; (2) Xaa is aminoisobutyric acid (Aib)) [SEQ ID NO: 44]
21 | 3.7% | YXQGTFVSDCSKYLDERRAKDFVQWLMNT (Y[Aib]QGTFVSDCSKYLDERRAKDFVQWLMNT; lactam 16-20) [SEQ ID NO: 39]
22 | 93.6% | YXQGTFVSDYSKYLDECRAKDFVQWLMNT (Y[Aib]QGTFVSDYSKYLDECRAKDFVQWLMNT; lactam 16-20) [SEQ ID NO: 27]
23 | 40.8% | YXQGTFVSDYSKYLDERRAKDFVQWLMNTC (Y[Aib]QGTFVSDYSKYLDERRAKDFVQWLMNTC; lactam 16-20) [SEQ ID NO: 40]

The remaining lines, values behind:

Row | Substance | In vitro activity (relative activity to SEQ ID NO: 1, %)
24 | WXQGTFTSDYSKCLDERRAKDFVQWLMNT (W[Aib]QGTFTSDYSKCLDERRAKDFVQWLMNT; lactam 16-20) [SEQ ID NO: 30] | 0.3%
25 | WXQGTFTSDYSKYCDERRAKEFVQWLMNT (W[Aib]QGTFTSDYSKYCDERRAKEFVQWLMNT; lactam 16-20) [SEQ ID NO: 34] | 0.2%
26 | WXQGTFTSDYSKYLDECRAKDFVQWLMNT (W[Aib]QGTFTSDYSKYLDECRAKDFVQWLMNT; lactam 16-20) [SEQ ID NO: 26] | 1.0%
27 | YXQGTFCSDYSKYLDERRAKDFVQWLMNT (Y[Aib]QGTFCSDYSKYLDERRAKDFVQWLMNT; lactam 16-20) [SEQ ID NO: 41] | 45.2%
28 | YXQGTFCSDYSKYLDERRAKEFVQWLMNT (Y[Aib]QGTFCSDYSKYLDERRAKEFVQWLMNT; lactam 16-20) [SEQ ID NO: 38] | 167.3%
29 | YXQGTFCSDYSKYLDSRRAQDFVQWLMNT (Y[Aib]QGTFCSDYSKYLDSRRAQDFVQWLMNT) [SEQ ID NO: 42] | 37.9%
30 | YXQGTFTSDCSKYLDERRAKEFVQWLMNT (Y[Aib]QGTFTSDCSKYLDERRAKEFVQWLMNT; lactam 16-20) [SEQ ID NO: 36] | 9.9%
31 | YXQGTFTSDCSKYLDSRRAQDFVQWLMNT (Y[Aib]QGTFTSDCSKYLDSRRAQDFVQWLMNT) [SEQ ID NO: 43] | 1.6%
32 | YXQGTFTSDYSCYLDSRRAQDFVQWLMNT (Y[Aib]QGTFTSDYSCYLDSRRAQDFVQWLMNT) [SEQ ID NO: 13] | 5.2%
33 | YXQGTFTSDYSKCLDEKRAKEFVQWLMNT (Y[Aib]QGTFTSDYSKCLDEKRAKEFVQWLMNT; lactam 16-20) [SEQ ID NO: 24] | 58.0%
34 | YXQGTFTSDYSKCLDERRAKDFVQWLMNT (Y[Aib]QGTFTSDYSKCLDERRAKDFVQWLMNT; lactam 16-20) [SEQ ID NO: 29] | 61.3%
35 | YXQGTFTSDYSKYCDEKRAKEFVQWLMNT (Y[Aib]QGTFTSDYSKYCDEKRAKEFVQWLMNT; lactam 16-20) [SEQ ID NO: 23] | 76.8%
36 | YXQGTFTSDYSKYCDERRAKEFVQWLMNT (Y[Aib]QGTFTSDYSKYCDERRAKEFVQWLMNT; lactam 16-20) [SEQ ID NO: 35] | 17.7%
37 | YXQGTFTSDYSKYLCEKRAKEFVQWLMNT (Y[Aib]QGTFTSDYSKYLCEKRAKEFVQWLMNT; lactam 16-20) [SEQ ID NO: 19] | 12.1%
38 | YXQGTFTSDYSKYLCEKRAQDFVVWLMNT (Y[Aib]QGTFTSDYSKYLCEKRAQDFVVWLMNT) [SEQ ID NO: 15] | 1.1%
39 | YXQGTFTSDYSKYLDCKRAKEFVQWLMNT (Y[Aib]QGTFTSDYSKYLDCKRAKEFVQWLMNT; lactam 17-21) [SEQ ID NO: 31] | 6.3%
40 | YXQGTFTSDYSKYLDCRRAQVFVQWLMRT (Y[Aib]QGTFTSDYSKYLDCRRAQVFVQWLMRT) [SEQ ID NO: 16] | 4.2%
41 | YXQGTFTSDYSKYLDCVRAQDFVQWLMRT (Y[Aib]QGTFTSDYSKYLDCVRAQDFVQWLMRT) [SEQ ID NO: 17] | 23.2%
42 | YXQGTFTSDYSKYLDECRAKEFVQWLMNT (Y[Aib]QGTFTSDYSKYLDECRAKEFVQWLMNT; lactam 16-20) [SEQ ID NO: 20] | 299.7%
43 | YXQGTFTSDYSKYLDEKRAKCFVQWLMNT (Y[Aib]QGTFTSDYSKYLDEKRAKCFVQWLMNT; lactam 16-20) [SEQ ID NO: 25] | 46.9%
